US20020160482A1, “Methods for protein purification” (priority 2001, published 2002)

T1: purified SSAO protein (recombinant human SSAO) (Homo sapiens, UniProt Q16853)
T1 construct: residues 29-763 of the human SSAO protein cloned from human aorta cDNA; mutated S. japonicum GST (Cys85/138/178 to Ser) with SQSQ spacer and 3C protease site EALFQG (N, cleaved yes); murine IgG1 heavy chain signal peptide (mutated), followed by an 18 amino acid spacer (N, cleaved yes); made in house; host or cells: HEK293 cells stably transfected with pMB887, protein secreted into the medium
T1 sequence (Q16853 29-763): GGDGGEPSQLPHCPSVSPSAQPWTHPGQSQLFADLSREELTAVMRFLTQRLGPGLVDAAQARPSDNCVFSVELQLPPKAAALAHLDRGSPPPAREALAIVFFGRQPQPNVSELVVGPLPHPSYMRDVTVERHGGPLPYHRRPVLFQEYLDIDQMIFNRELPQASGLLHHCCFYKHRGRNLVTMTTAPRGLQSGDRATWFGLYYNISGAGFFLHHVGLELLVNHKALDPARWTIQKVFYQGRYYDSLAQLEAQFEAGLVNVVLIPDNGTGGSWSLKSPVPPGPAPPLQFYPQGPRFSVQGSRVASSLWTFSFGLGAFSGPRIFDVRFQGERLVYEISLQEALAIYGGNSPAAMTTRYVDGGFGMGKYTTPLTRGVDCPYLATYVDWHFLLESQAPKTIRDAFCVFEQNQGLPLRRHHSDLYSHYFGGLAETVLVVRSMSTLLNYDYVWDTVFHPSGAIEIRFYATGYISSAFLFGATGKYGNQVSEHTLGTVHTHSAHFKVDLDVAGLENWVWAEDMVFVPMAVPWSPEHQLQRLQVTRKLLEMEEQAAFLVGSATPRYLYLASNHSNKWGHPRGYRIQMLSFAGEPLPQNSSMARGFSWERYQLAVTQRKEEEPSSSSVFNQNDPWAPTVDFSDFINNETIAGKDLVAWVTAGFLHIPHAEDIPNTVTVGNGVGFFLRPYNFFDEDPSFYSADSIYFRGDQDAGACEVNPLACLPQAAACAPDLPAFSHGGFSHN

B1: SSAO protein: purified soluble recombinant human SSAO (residues 29-763) after removal of the GST fusion partner (protein, listed as Homo sapiens)
chain: T1 sequence (Q16853 29-763)

Legend:
[1] = molecular target: T1, purified SSAO protein (recombinant human SSAO); assay: Semicarbazide inhibition of benzylamine oxidase activity (spectrophotometric amine oxidase assay); assay type: biochemical; conditions: in the presence of 0.1 mM semicarbazide, read-out: benzylamine oxidase activity inhibited
Procedure: A spectrophotometric assay for monoamine oxidases described by Holt and coworkers (Holt et al., 1997) was used to determine amine oxidase activity in samples from the different purification steps. The assay was performed in 96-well microtiter plates incubated at 37° C. in a SPECTRAmax 250 microplate spectrophotometer (Molecular Devices, Sunnyvale, Calif.). The reagent mix containing 1 mM vanillic acid (Sigma, St. Louis, Mo.), 500 μM 4-aminoantipyrine (Sigma), and 4U ml^−1 peroxidase (type VI from horseradish, Sigma) in 0.2 M potassium phosphate buffer (pH 7.6) was prepared on the same day assays were performed and kept at 5° C. until used. Reactions were started by mixing 50 μl sample, 50 μl reagent mix and 200 μl potassium phosphate buffer with or without 750 μM benzylamine hydrochloride (Sigma) and were performed in triplicate. In order to obtain blank reference values, wells were analyzed with buffer added in place of sample. Absorbance changes were followed at 490 nm for 10-40 minutes. Standard curves were prepared with dilutions of a stock solution of H2O2 in potassium phosphate buffer ranging from 10 nmol/well to 120 nmol/well. When inhibition experiments were carried out, the samples were incubated in 300 μM semicarbazide at 37° C. for 30 minutes, before addition of the benzylamine solution. […]

[2] = Spectrophotometric amine oxidase assay: specific benzylamine oxidase activity of purified proteins; assay type: biochemical, human
Procedure: A spectrophotometric assay for monoamine oxidases described by Holt and coworkers (Holt et al., 1997) was used to determine amine oxidase activity in samples from the different purification steps. The assay was performed in 96-well microtiter plates incubated at 37° C. in a SPECTRAmax 250 microplate spectrophotometer (Molecular Devices, Sunnyvale, Calif.). The reagent mix containing 1 mM vanillic acid (Sigma, St. Louis, Mo.), 500 μM 4-aminoantipyrine (Sigma), and 4U ml^−1 peroxidase (type VI from horseradish, Sigma) in 0.2 M potassium phosphate buffer (pH 7.6) was prepared on the same day assays were performed and kept at 5° C. until used. Reactions were started by mixing 50 μl sample, 50 μl reagent mix and 200 μl potassium phosphate buffer with or without 750 μM benzylamine hydrochloride (Sigma) and were performed in triplicate. In order to obtain blank reference values, wells were analyzed with buffer added in place of sample. Absorbance changes were followed at 490 nm for 10-40 minutes. Standard curves were prepared with dilutions of a stock solution of H2O2 in potassium phosphate buffer ranging from 10 nmol/well to 120 nmol/well. When inhibition experiments were carried out, the samples were incubated in 300 μM semicarbazide at 37° C. for 30 minutes, before addition of the benzylamine solution.

| Molecule | inhibition at 100 µM [1] [%] | specific activity ([2]; after cleavage, flow-through of second glutathione-Sepharose step (cleavage buffer with DTT)) [nmol/min/mg] | specific activity ([2]; after removal of GST fusion partner and diafiltration (final product)) [nmol/min/mg] | specific activity ([2]; per purification step, nmol of H2O2 produced per minute using 0.5 mM benzylamine as substrate, listed as Diafiltrate) [nmol/min/mg] | specific activity ([2]; per purification step, nmol of H2O2 produced per minute using 0.5 mM benzylamine as substrate, listed as GSH-affinity step-2 (flow-through)) [nmol/min/mg] |
| --- | --- | --- | --- | --- | --- |
| NNC(N)=O [semicarbazide] | > 95 | – | – | – | – |
| B1 | – | 522 | 809 | 809 | 522 |
